Reference: the supplement of paper PMC7125110
± gives the standard error. Fewer inactive variants are shown than the library holds.

B1: glmS ribozyme (parent)
chain: AUAAAAGCGCCAGAACUACAGAAAUGUAGUUGACGAGGAGGAGGUUUAUCGAAUUUUCGGCGGAUGCCUCCAAA

How the values were obtained:
Details in all cases: with glucosamine-6-phosphate
glucosamine-6-phosphate [1] = variants of: B1; test: self-cleavage kobs at 640 uM GlcN6P; higher = faster cleavage; RNA array
In short: (§1)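 Tiles bearing barcoded ribozyme variants, transcribed in situ by E. coli RNA polymerase on sequenced MiSeq chips, were imaged over ~14 h at 37 °C using a hybridised Cy3 probe. Glucosamine-6-phosphate was supplied at 40 μM to 10 mM in HEPES/KCl/Mg(OAc)2 buffer. kobs came from one- or two-exponential decay fits to normalised per-tile medians, and weighted Michaelis–Menten fits then provided kcat and KM.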

glucosamine-6-phosphate [2] = variants of: B1; test: self-cleavage kobs at 2500 uM GlcN6P; higher = faster cleavage; RNA array
In short: as §1

glucosamine-6-phosphate [3] = variants of: B1; test: self-cleavage kobs at 10000 uM GlcN6P; higher = faster cleavage; RNA array
In short: as §1

Variant | self-cleavage kobs at 640 uM GlcN6P (glucosamine-6-phosphate [1]) [s⁻¹] | self-cleavage kobs at 2500 uM GlcN6P (glucosamine-6-phosphate [2]) [s⁻¹] | self-cleavage kobs at 10000 uM GlcN6P (glucosamine-6-phosphate [3]) [s⁻¹]
C8G G38U G41A U46G G59A | < 1e-05 | < 1e-05 | 
G9U A12C | < 1e-05 |  | < 1e-05
G35C A36U G40A | < 1e-05 | < 1e-05 | 
G41C G51U A64C | < 1e-05 | < 1e-05 | 
U30G U45C C71A | 3.43e-05 ± 1.1e-05 | 8.42e-05 ± 2e-05 | 
G43C U49A U57G C68G | < 1e-05 |  | 
A33G A36U G38C | < 1e-05 |  | 
G9A G44C A53G U57A | < 1e-05 | < 1e-05 | < 1e-05
G9A C10A U30C | < 1e-05 | < 1e-05 | 
G29U U69A C71G | 8.16e-05 ± 3.4e-05 |  | 
A42C U46G U49A | < 1e-05 |  | 
A14C A42U A64U | < 1e-05 | < 1e-05 | 
U49A C50G | < 1e-05 |  | 
G32U C50U C61U | < 1e-05 | < 1e-05 | 
A6U G40U U65C C68U | < 1e-05 | < 1e-05 | 
A12G A42G C61U G63U | < 1e-05 |  | 
A6G A14C C34U | < 1e-05 |  | 
G7U U30A G63A | < 1e-05 |  | 
C34U U55C C67U | < 1e-05 |  | 
G9A C10U C68A | < 1e-05 |  | 
A12G G43C A53G | < 1e-05 | < 1e-05 | 
G9C G32U C50U | < 1e-05 |  | 
G7C C10A G13A A33C | < 1e-05 | < 1e-05 | < 1e-05
A14U C16G G35U A36U G38U U56C U57G G60U | < 1e-05 | < 1e-05 | 
G32A U49G C58G G63U U69G | 0.000279 ± 9.2e-05 | 0.000153 ± 3.7e-05 | 
A14U A36C U47C | < 1e-05 |  | 

Variant | self-cleavage kobs at 640 uM GlcN6P (glucosamine-6-phosphate [1]) [s⁻¹] | self-cleavage kobs at 2500 uM GlcN6P (glucosamine-6-phosphate [2]) [s⁻¹] | self-cleavage kobs at 10000 uM GlcN6P (glucosamine-6-phosphate [3]) [s⁻¹]
U57G G59U | < 1e-05 | < 1e-05 | < 1e-05
G29C A42G G43U G51C G62C | < 1e-05 |  | 
A14U G40C U69C C71U | < 1e-05 |  | 
U65G G66C | 0.000223 ± 4.9e-05 |  | 0.00137 ± 0.00016
G7C A36C U56A | < 1e-05 |  | 
C34G G41C C71U | < 1e-05 |  | 
G9C A39G G40U | < 1e-05 | < 1e-05 | < 1e-05
G38A A42U G60U C71G | < 1e-05 |  | 
G41U A48U A64C | < 1e-05 | < 1e-05 | 
A14U C16A G29A | 8.7e-05 ± 2.4e-05 |  | 
C34A C61U U65C U69G | < 1e-05 |  | 
G40U C50G | < 1e-05 | < 1e-05 | < 1e-05
C10G G35A A42C | < 1e-05 | < 1e-05 | 
A36U A42C U47A | < 1e-05 | < 1e-05 | 
A15G G29A A42C | < 1e-05 |  | 
C16U G37A U54C | 0.000373 ± 8.1e-05 | 0.000599 ± 0.00013 | 0.00176 ± 0.00031
C10U G32A G59A G60A | < 1e-05 |  | 
A15U C16A A52U A53C | < 1e-05 | < 1e-05 | 
A15G C16U C67U | 0.000521 ± 0.00014 |  | 
U46C G59C | < 1e-05 |  | 
A12C G35A A36C U56G G60C | < 1e-05 | < 1e-05 | 
G13A U57A A64C C68A | 0.000763 ± 0.00019 |  | 
A33C G37A G41C U56C | < 1e-05 |  | 
C8A C34U A36U G59U G62A | < 1e-05 |  | 
G60U G63U C70A | < 1e-05 |  | 
G13C C50A | < 1e-05 |  | < 1e-05

Variant | self-cleavage kobs at 640 uM GlcN6P (glucosamine-6-phosphate [1]) [s⁻¹] | self-cleavage kobs at 2500 uM GlcN6P (glucosamine-6-phosphate [2]) [s⁻¹] | self-cleavage kobs at 10000 uM GlcN6P (glucosamine-6-phosphate [3]) [s⁻¹]
G7A G44A U46C A48U | < 1e-05 | < 1e-05 | 
A15G A48U C50U G60A C68G | 0.000775 ± 0.00022 |  | 
G9A A42G A52G | < 1e-05 |  | 
A15C A36G U55A | < 1e-05 | < 1e-05 | 
A15C G44C C50U | < 1e-05 | < 1e-05 | 
G29C U47A C50A | < 1e-05 |  | < 1e-05
G29C G43U A64U C68G | < 1e-05 |  | 
C10U A12U G29C G41U C70U | < 1e-05 | < 1e-05 | 
U47G U49A A52U | < 1e-05 |  | 
A39U A53C C71A | 8.85e-05 ± 1.7e-05 | 0.000186 ± 5.3e-05 | 
C10G C16A A53U G66U U69A | 5.56e-05 ± 2.7e-05 | 4.65e-05 ± 2e-05 | 
G29A A36C | < 1e-05 | < 1e-05 | < 1e-05
C8A A53G G63U | < 1e-05 |  | 
G13C G29U C71G | < 1e-05 |  | 
U65G U69C C71U | 6.22e-05 ± 1.6e-05 | 6.97e-05 ± 2.6e-05 | 
A14C C34U U54C | < 1e-05 | < 1e-05 | < 1e-05
U30A A36U C70G | 0.000179 ± 6.1e-05 | 0.000108 ± 4.4e-05 | 3.78e-05 ± 1.7e-05
G13C U55A U69A | 0.00022 ± 7e-05 |  | 
A14G C67U C71U | 0.000875 ± 0.00018 | 0.00249 ± 0.00091 | 
C8U C34U A42U U65A C67G | 0.000104 ± 4.1e-05 | 5.58e-05 ± 2.1e-05 | 
G40C G41U G43U | < 1e-05 | < 1e-05 | 
G44A C50G | < 1e-05 | < 1e-05 | < 1e-05
U31C G35C C50U | < 1e-05 | < 1e-05 | 
G43A A48U C50A | < 1e-05 | < 1e-05 | 
A15G C16G C50G U54C | 0.00183 ± 0.00059 |  | 
U49C C50U G51A | < 1e-05 | < 1e-05 | 

Variant | self-cleavage kobs at 640 uM GlcN6P (glucosamine-6-phosphate [1]) [s⁻¹] | self-cleavage kobs at 2500 uM GlcN6P (glucosamine-6-phosphate [2]) [s⁻¹] | self-cleavage kobs at 10000 uM GlcN6P (glucosamine-6-phosphate [3]) [s⁻¹]
C10G A14U | < 1e-05 |  | < 1e-05
C8G A33U G41U | < 1e-05 |  | 
A33C G66C C68G C70A | < 1e-05 |  | 
C10G U54A C58G G62C C67G | 6.44e-05 ± 2.7e-05 | 6.02e-05 ± 2.4e-05 | 
A14U G40C G44C U45C C70U | < 1e-05 | < 1e-05 | 
G7U G40C U49A | < 1e-05 |  | 
A12C G32C G62A G63U | < 1e-05 | < 1e-05 | 
A36C A42U A52G C70U | < 1e-05 |  | 
G32U A39G C71U | 0.000114 ± 3.4e-05 | 0.00038 ± 0.0001 | 
C11A G13U U57G C71U | 4.71e-05 ± 2.2e-05 |  | 
A6U G9C A12C U55A | < 1e-05 | < 1e-05 | 
C8U G9C C50A G51U G60U | < 1e-05 |  | 
G59C A64G U69G | < 1e-05 |  | 
G29U U55G G59U C70G | 0.00019 ± 4.5e-05 |  | 
U31A A42U G59U | < 1e-05 |  | 
G7C C8A A42U | < 1e-05 |  | 
A39C U45G C70G | < 1e-05 | < 1e-05 | 
G13C U46G A53U U54A | < 1e-05 |  | 
C16U G43A C67G | 0.000254 ± 6.6e-05 |  | 0.000419 ± 0.0001
G9C C67G C68U | < 1e-05 | < 1e-05 | 
A36U A39U C71U | < 1e-05 |  | 
G37A U46G C71U | 6.59e-05 ± 3.1e-05 |  | 
G35C U49A G51U A53U | < 1e-05 | < 1e-05 | 
G13C G41U C71U | < 1e-05 |  | 
A39G U46C C71U | 0.00179 ± 0.00048 |  | 
G43A U46C U54A U56A U69C | < 1e-05 |  | 

Variant | self-cleavage kobs at 640 uM GlcN6P (glucosamine-6-phosphate [1]) [s⁻¹] | self-cleavage kobs at 2500 uM GlcN6P (glucosamine-6-phosphate [2]) [s⁻¹] | self-cleavage kobs at 10000 uM GlcN6P (glucosamine-6-phosphate [3]) [s⁻¹]
C8A C10G A15G C16G C50A G63U | < 1e-05 |  | 
G44A U46A G62A | < 1e-05 |  | 
C16A G63U C67U | 0.000112 ± 4.7e-05 |  | 
C8A G44C U46A | < 1e-05 | < 1e-05 | 
G7U G13U A42G | < 1e-05 |  | 
C34A U46G G62C | < 1e-05 |  | 
U30A G38U | < 1e-05 | < 1e-05 | 
C11G U55G G59C | 0.00067 ± 0.00021 |  | 
C16A G32A C34A | < 1e-05 | < 1e-05 | < 1e-05
C10A U56A C70U | 6.36e-05 ± 2.6e-05 | 0.000147 ± 6.5e-05 | 
C10U A14U C16U C68G | 0.00169 ± 0.00051 | 0.000319 ± 0.00011 | 
G32A G44U C67G | 0.000431 ± 0.0001 | 0.00127 ± 0.00059 | 
C11A A33G A48C C67U | < 1e-05 | < 1e-05 | 
G40U G41U U49G C61G | < 1e-05 | < 1e-05 | 
A36C A39C A53G | < 1e-05 | < 1e-05 | 
A15C A36C G41U | < 1e-05 |  | 
A53U U56A C71U | 0.00121 ± 0.00015 | 0.00323 ± 0.00064 | 
A12G A15G G35A C68G | < 1e-05 |  | 
G35A G41U U46A | < 1e-05 | < 1e-05 | 
C10U A15U G35A C61G | < 1e-05 | < 1e-05 | 
A33C U47G A48C | < 1e-05 | < 1e-05 | < 1e-05
C34U G51C U54A | < 1e-05 | < 1e-05 | 
A42U U47A U49A | < 1e-05 | < 1e-05 | 
U30A G40U G60C C61A | < 1e-05 | < 1e-05 | 
G9C A48G C67G C68A | 9.72e-05 ± 4.1e-05 |  | 0.000631 ± 0.00016
A12C U46A G62C | < 1e-05 |  | 
